Experimental findings from IntAct's records for PubMed 30126976 are described below.

First the molecules themselves.
B1: Cysteinyl leukotriene receptor 2 (Homo sapiens), Q9NS75 (parent)
chain: MERKFMSLQPSISVSEMEPNGTFSNNNSRNCTIENFKREFFPIVYLIIFFWGVLGNGLSIYVFLQPYKKSTSVNVFMLNLAISDLLFISTLPFRADYYLRGSNWIFGDLACRIMSYSLYVNMYSSIYFLTVLSVVRFLAMVHPFRLLHVTSIRSAWILCGIIWILIMASSIMLLDSGSEQNGSVTSCLELNLYKIAKLQTMNYIALVVGCLLPFFTLSICYLLIIRVLLKVEVPESGLRVSHRKALTTIIITLIIFFLCFLPYHTLRTVHLTTWKVGLCKDRLHKALVITLALAAANACFNPLLYYFAGENFKDRLKSALRKGHPQKAKTKCVFPVSVWLRKETRV
B2: Plakophilin-4 (Homo sapiens), Q99569 (parent)
chain: MPAPEQASLVEEGQPQTRQEAASTGPGMEPETTATTILASVKEQELQFQRLTRELEVERQIVASQLERCRLGAESPSIASTSSTEKSFPWRSTDVPNTGVSKPRVSDAVQPNNYLIRTEPEQGTLYSPEQTSLHESEGSLGNSRSSTQMNSYSDSGYQEAGSFHNSQNVSKADNRQQHSFIGSTNNHVVRNSRAEGQTLVQPSVANRAMRRVSSVPSRAQSPSYVISTGVSPSRGSLRTSLGSGFGSPSVTDPRPLNPSAYSSTTLPAARAASPYSQRPASPTAIRRIGSVTSRQTSNPNGPTPQYQTTARVGSPLTLTDAQTRVASPSQGQVGSSSPKRSGMTAVPQHLGPSLQRTVHDMEQFGQQQYDIYERMVPPRPDSLTGLRSSYASQHSQLGQDLRSAVSPDLHITPIYEGRTYYSPVYRSPNHGTVELQGSQTALYRTGSVGIGNLQRTSSQRSTLTYQRNNYALNTTATYAEPYRPIQYRVQECNYNRLQHAVPADDGTTRSPSIDSIQKDPREFAWRDPELPEVIHMLQHQFPSVQANAAAYLQHLCFGDNKVKMEVCRLGGIKHLVDLLDHRVLEVQKNACGALRNLVFGKSTDENKIAMKNVGGIPALLRLLRKSIDAEVRELVTGVLWNLSSCDAVKMTIIRDALSTLTNTVIVPHSGWNNSSFDDDHKIKFQTSLVLRNTTGCLRNLSSAGEEARKQMRSCEGLVDSLLYVIHTCVNTSDYDSKTVENCVCTLRNLSYRLELEVPQARLLGLNELDDLLGKESPSKDSEPSCWGKKKKKKKRTPQEDQWDGVGPIPGLSKSPKGVEMLWHPSVVKPYLTLLAESSNPATLEGSAGSLQNLSAGNWKFAAYIRAAVRKEKGLPILVELLRMDNDRVVSSVATALRNMALDVRNKELIGKYAMRDLVNRLPGGNGPSVLSDETMAAICCALHEVTSKNMENAKALADSGGIEKLVNITKGRGDRSSLKVVKAAAQVLNTLWQYRDLRSIYKKDGWNQNHFITPVSTLERDRFKSHPSLSTTNQQMSPIIQSVGSTSSSPALLGIRDPRSEYDRTQPPMQYYNSQGDATHKGLYPGSSKPSPIYISSYSSPAREQNRRLQHQQLYYSQDDSNRKNFDAYRLYLQSPHSYEDPYFDDRVHFPASTDYSTQYGLKSTTNYVDFYSTKRPSYRAEQYPGSPDSWV
B3: Vang-like protein 2 (Homo sapiens), Q9ULK5 (parent)
chain: MDTESQYSGYSYKSGHSRSSRKHRDRRDRHRSKSRDGGRGDKSVTIQAPGEPLLDNESTRGDERDDNWGETTTVVTGTSEHSISHDDLTRIAKDMEDSVPLDCSRHLGVAAGATLALLSFLTPLAFLLLPPLLWREELEPCGTACEGLFISVAFKLLILLLGSWALFFRRPKASLPRVFVLRALLMVLVFLLVVSYWLFYGVRILDARERSYQGVVQFAVSLVDALLFVHYLAVVLLELRQLQPQFTLKVVRSTDGASRFYNVGHLSIQRVAVWILEKYYHDFPVYNPALLNLPKSVLAKKVSGFKVYSLGEENSTNNSTGQSRAVIAAAARRRDNSHNEYYYEEAEHERRVRKRRARLVVAVEEAFTHIKRLQEEEQKNPREVMDPREAAQAIFASMARAMQKYLRTTKQQPYHTMESILQHLEFCITHDMTPKAFLERYLAAGPTIQYHKERWLAKQWTLVSEEPVTNGLKDGIVFLLKRQDFSLVVSTKKVPFFKLSEEFVDPKSHKFVMRLQSETSV

In one test the parent is B1. The conditions noted are these: with scrib_human SCRIB.
Consider MERKFMSLQPSISVSEMEPNGTFSNNNSRNCTIENFKREFFPIVYLIIFFWGVLGNGLSIYVFLQPYKKSTSVNVFMLNLAISDLLFISTLPFRADYYLRGSNWIFGDLACRIMSYSLYVNMYSSIYFLTVLSVVRFLAMVHPFRLLHVTSIRSAWILCGIIWILIMASSIMLLDSGSEQNGSVTSCLELNLYKIAKLQTMNYIALVVGCLLPFFTLSICYLLIIRVLLKVEVPESGLRVSHRKALTTIIITLIIFFLCFLPYHTLRTVHLTTWKVGLCKDRLHKALVITLALAAANACFNPLLYYFAGENFKDRLKSALRKGHPQKAKTKCVFPVSVWLRKEERV [T344E], for which the “effect of a mutation on the interaction” value is “disrupting interaction strength”.

The variants in a further test derive from B1. The conditions noted are these: with dlg1_human DLG1, Q12959.
Target sequence in this assay (Q12959 whole entry, looked up): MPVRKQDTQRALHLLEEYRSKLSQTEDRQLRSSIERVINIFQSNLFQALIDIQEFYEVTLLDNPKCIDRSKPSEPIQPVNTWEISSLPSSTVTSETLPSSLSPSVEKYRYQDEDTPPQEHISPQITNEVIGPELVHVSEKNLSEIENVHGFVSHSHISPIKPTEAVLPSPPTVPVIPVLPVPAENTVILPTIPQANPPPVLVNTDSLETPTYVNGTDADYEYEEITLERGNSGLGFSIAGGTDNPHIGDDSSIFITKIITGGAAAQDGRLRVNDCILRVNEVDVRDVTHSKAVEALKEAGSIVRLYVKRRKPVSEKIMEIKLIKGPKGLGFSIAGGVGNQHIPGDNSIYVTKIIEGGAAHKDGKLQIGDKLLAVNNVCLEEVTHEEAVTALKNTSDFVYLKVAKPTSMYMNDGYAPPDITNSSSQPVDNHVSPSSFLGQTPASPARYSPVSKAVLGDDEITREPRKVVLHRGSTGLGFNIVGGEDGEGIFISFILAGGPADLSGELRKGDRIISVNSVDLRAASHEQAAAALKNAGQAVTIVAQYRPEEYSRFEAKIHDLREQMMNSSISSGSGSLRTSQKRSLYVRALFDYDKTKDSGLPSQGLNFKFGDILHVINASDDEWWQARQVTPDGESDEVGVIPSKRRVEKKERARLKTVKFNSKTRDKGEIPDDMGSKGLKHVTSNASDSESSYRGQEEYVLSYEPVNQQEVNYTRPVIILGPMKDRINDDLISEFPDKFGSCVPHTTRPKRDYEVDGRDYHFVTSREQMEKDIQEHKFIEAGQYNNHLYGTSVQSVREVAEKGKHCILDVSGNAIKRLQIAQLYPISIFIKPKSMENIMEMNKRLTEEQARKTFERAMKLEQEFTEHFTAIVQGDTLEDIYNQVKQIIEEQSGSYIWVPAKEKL
With MERKFMSLQPSISVSEMEPNGTFSNNNSRNCTIENFKREFFPIVYLIIFFWGVLGNGLSIYVFLQPYKKSTSVNVFMLNLAISDLLFISTLPFRADYYLRGSNWIFGDLACRIMSYSLYVNMYSSIYFLTVLSVVRFLAMVHPFRLLHVTSIRSAWILCGIIWILIMASSIMLLDSGSEQNGSVTSCLELNLYKIAKLQTMNYIALVVGCLLPFFTLSICYLLIIRVLLKVEVPESGLRVSHRKALTTIIITLIIFFLCFLPYHTLRTVHLTTWKVGLCKDRLHKALVITLALAAANACFNPLLYYFAGENFKDRLKSALRKGHPQKAKTKCVFPVSVWLRKEERV [T344E], the “effect of a mutation on the interaction” value was “disrupting interaction strength”.

The next test covers variants of B2. The conditions noted are these: with dlg1_human DLG1, Q12959.
Target sequence in this assay (Q12959 whole entry, looked up): as the sequence (Q12959 whole entry, looked up) above
Consider S1190E, for which the “effect of a mutation on the interaction” value was “disrupting interaction strength”.

Another test covers variants of B3. As to conditions: with dlg1_human DLG1, Q12959.
Target sequence in this assay (Q12959 whole entry, looked up): as the sequence (Q12959 whole entry, looked up) above
Regarding MDTESQYSGYSYKSGHSRSSRKHRDRRDRHRSKSRDGGRGDKSVTIQAPGEPLLDNESTRGDERDDNWGETTTVVTGTSEHSISHDDLTRIAKDMEDSVPLDCSRHLGVAAGATLALLSFLTPLAFLLLPPLLWREELEPCGTACEGLFISVAFKLLILLLGSWALFFRRPKASLPRVFVLRALLMVLVFLLVVSYWLFYGVRILDARERSYQGVVQFAVSLVDALLFVHYLAVVLLELRQLQPQFTLKVVRSTDGASRFYNVGHLSIQRVAVWILEKYYHDFPVYNPALLNLPKSVLAKKVSGFKVYSLGEENSTNNSTGQSRAVIAAAARRRDNSHNEYYYEEAEHERRVRKRRARLVVAVEEAFTHIKRLQEEEQKNPREVMDPREAAQAIFASMARAMQKYLRTTKQQPYHTMESILQHLEFCITHDMTPKAFLERYLAAGPTIQYHKERWLAKQWTLVSEEPVTNGLKDGIVFLLKRQDFSLVVSTKKVPFFKLSEEFVDPKSHKFVMRLQSETEV [S520E], the “effect of a mutation on the interaction” value is recorded as “increasing interaction strength”.
